Where a chain is given by its changes, count along the chain named.
B1: Siglec8 hzG2v2.1, monomeric VHH-hIgG1 fusion (Fc NNT) (Fc fusion)
chain: EVQLLESGGGEVQPGGSLRLSCAASGSISIFSMYVVAWYRQAPGKEREWVAFIQRGGTANYAESAKGRFTISRDNAKNTVYLQMSSLRAEDTAVYYCNYINSDNEIGGPWGQGTLVTVKP
notes: Monomeric format; not shown: non-dimerizing human IgG1 Fc variant lacking a hinge (Fc NNT)
B2: Siglec8 hzG2v6.1, monomeric VHH-hIgG1 fusion (Fc NNT) (Fc fusion)
chain: B1 chain with E46Q, A51S
notes: as for B1
B3: Siglec8 hzG2v16, monomeric VHH-hIgG1 fusion (Fc NNT) (Fc fusion)
chain: B1 chain with M33L
notes: as for B1
B4: Siglec8 hzG2v11, monomeric VHH-hIgG1 fusion (Fc NNT) (Fc fusion)
chain: B1 chain with N101Q
notes: as for B1
B5: Siglec8 hzG2v13, monomeric VHH-hIgG1 fusion (Fc NNT) (Fc fusion)
chain: B1 chain with N101T
notes: as for B1
B6: Siglec8 hzG2v24, monomeric VHH-hIgG1 fusion (Fc NNT) (Fc fusion)
chain: B1 chain with E1Q, Q3T, L5K, E11L, Q13R, P14T, E46Q
notes: as for B1
B7: Siglec8 hzG2v14, monomeric VHH-hIgG1 fusion (Fc NNT) (Fc fusion)
chain: B1 chain with S102T
notes: as for B1
B8: Siglec8 hzG2v12, monomeric VHH-hIgG1 fusion (Fc NNT) (Fc fusion)
chain: B1 chain with N101S
notes: as for B1
B9: Siglec8 hzG2v15, monomeric VHH-hIgG1 fusion (Fc NNT) (Fc fusion)
chain: B1 chain with M33Y
notes: as for B1
B10: Hex-D1, hexavalent Siglec8-VHH-Fc (xELL) (Fc fusion)
chain: QVQLVESGGGLVQPGGSLRLSCAASGSIASIHGMGWYRQAPGKERELVAAIAGEGSTYYADSVKGRFTISRDFAKNTLYLQMNNLKAEDTAMYYCANNDERDDYWGQGTQVTVKPGGSGGSQVQLVESGGGLVQPGGSLRLSCAASGSIASIHGMGWYRQAPGKERELVAAIAGEGSTYYADSVKGRFTISRDFAKNTLYLQMNNLKAEDTAMYYCANNDERDDYWGQGTQVTVKPGGSGGSQVQLVESGGGLVQPGGSLRLSCAASGSIASIHGMGWYRQAPGKERELVAAIAGEGSTYYADSVKGRFTISRDFAKNTLYLQMNNLKAEDTAMYYCANNDERDDYWGQGTQVTVKPGGGGDKTHTCPPCPAPGGPSVFLFPPKPKDTLMISRTPEVTCVVVDVSHEDPEVKFNWYVDGVEVHNAKTKPREEQYNSTYRVVSVLTVLHQDWLNGKEYKCKVSNKALPAPIEKTISKAKGQPREPQVYTLPPSRDELTKNQVSLTCLVKGFYPSDIAVEWESNGQPENNYKTTPPVLDSDGSFFLYSKLTVDKSRWQQGNVFSCSVMHEALHNHYTQKSLSLSPGK
notes: Homodimer through the Fc; also called cx8523
B11: Hex-B12, hexavalent Siglec8-VHH-Fc (xELL) (Fc fusion)
chain: QVQVVESGGGLVQPGGSLRLSCAASGSTSLLNAMAWYRQAPGKERELVAAISSGGGTYYADSVKGRFTISTNNAKNTLYLQMNSLKPEDTAMYYCAPGPNYSDYEEINWGQGTQVTVKPGGSGGSQVQVVESGGGLVQPGGSLRLSCAASGSTSLLNAMAWYRQAPGKERELVAAISSGGGTYYADSVKGRFTISTNNAKNTLYLQMNSLKPEDTAMYYCAPGPNYSDYEEINWGQGTQVTVKPGGSGGSQVQVVESGGGLVQPGGSLRLSCAASGSTSLLNAMAWYRQAPGKERELVAAISSGGGTYYADSVKGRFTISTNNAKNTLYLQMNSLKPEDTAMYYCAPGPNYSDYEEINWGQGTQVTVKPGGGGDKTHTCPPCPAPGGPSVFLFPPKPKDTLMISRTPEVTCVVVDVSHEDPEVKFNWYVDGVEVHNAKTKPREEQYNSTYRVVSVLTVLHQDWLNGKEYKCKVSNKALPAPIEKTISKAKGQPREPQVYTLPPSRDELTKNQVSLTCLVKGFYPSDIAVEWESNGQPENNYKTTPPVLDSDGSFFLYSKLTVDKSRWQQGNVFSCSVMHEALHNHYTQKSLSLSPGK
notes: Homodimer through the Fc; also called cx8466
B12: Tet-E2, tetravalent Siglec8-VHH-Fc (xELL) (Fc fusion)
chain: QVQLVESGGGLVQPGGSLRLSCATSGIIFTSNVINWYRQAPGKQREFVAFITSITSGQSTMYADAVKGRFTVSRDNDKNIGYLQMTSLQPEDTARYVCNVGAYWGQGTQVTVKPGGSGGSQVQLVESGGGLVQPGGSLRLSCATSGIIFTSNVINWYRQAPGKQREFVAFITSITSGQSTMYADAVKGRFTVSRDNDKNIGYLQMTSLQPEDTARYVCNVGAYWGQGTQVTVKPGGGGDKTHTCPPCPAPGGPSVFLFPPKPKDTLMISRTPEVTCVVVDVSHEDPEVKFNWYVDGVEVHNAKTKPREEQYNSTYRVVSVLTVLHQDWLNGKEYKCKVSNKALPAPIEKTISKAKGQPREPQVYTLPPSRDELTKNQVSLTCLVKGFYPSDIAVEWESNGQPENNYKTTPPVLDSDGSFFLYSKLTVDKSRWQQGNVFSCSVMHEALHNHYTQKSLSLSPGK
notes: Homodimer through the Fc; also called cx8463
B13: Tet-B12, tetravalent Siglec8-VHH-Fc (xELL) (Fc fusion)
chain: QVQVVESGGGLVQPGGSLRLSCAASGSTSLLNAMAWYRQAPGKERELVAAISSGGGTYYADSVKGRFTISTNNAKNTLYLQMNSLKPEDTAMYYCAPGPNYSDYEEINWGQGTQVTVKPGGSGGSQVQVVESGGGLVQPGGSLRLSCAASGSTSLLNAMAWYRQAPGKERELVAAISSGGGTYYADSVKGRFTISTNNAKNTLYLQMNSLKPEDTAMYYCAPGPNYSDYEEINWGQGTQVTVKPGGGGDKTHTCPPCPAPGGPSVFLFPPKPKDTLMISRTPEVTCVVVDVSHEDPEVKFNWYVDGVEVHNAKTKPREEQYNSTYRVVSVLTVLHQDWLNGKEYKCKVSNKALPAPIEKTISKAKGQPREPQVYTLPPSRDELTKNQVSLTCLVKGFYPSDIAVEWESNGQPENNYKTTPPVLDSDGSFFLYSKLTVDKSRWQQGNVFSCSVMHEALHNHYTQKSLSLSPGK
notes: Homodimer through the Fc; also called cx8467
B14: Tet-D1, tetravalent Siglec8-VHH-Fc (xELL) (Fc fusion)
chain: QVQLVESGGGLVQPGGSLRLSCAASGSIASIHGMGWYRQAPGKERELVAAIAGEGSTYYADSVKGRFTISRDFAKNTLYLQMNNLKAEDTAMYYCANNDERDDYWGQGTQVTVKPGGSGGSQVQLVESGGGLVQPGGSLRLSCAASGSIASIHGMGWYRQAPGKERELVAAIAGEGSTYYADSVKGRFTISRDFAKNTLYLQMNNLKAEDTAMYYCANNDERDDYWGQGTQVTVKPGGGGDKTHTCPPCPAPGGPSVFLFPPKPKDTLMISRTPEVTCVVVDVSHEDPEVKFNWYVDGVEVHNAKTKPREEQYNSTYRVVSVLTVLHQDWLNGKEYKCKVSNKALPAPIEKTISKAKGQPREPQVYTLPPSRDELTKNQVSLTCLVKGFYPSDIAVEWESNGQPENNYKTTPPVLDSDGSFFLYSKLTVDKSRWQQGNVFSCSVMHEALHNHYTQKSLSLSPGK
notes: Homodimer through the Fc; also called cx8469
B15: Hex-E2, hexavalent Siglec8-VHH-Fc (xELL) (Fc fusion)
chain: QVQLVESGGGLVQPGGSLRLSCATSGIIFTSNVINWYRQAPGKQREFVAFITSITSGQSTMYADAVKGRFTVSRDNDKNIGYLQMTSLQPEDTARYVCNVGAYWGQGTQVTVKPGGSGGSQVQLVESGGGLVQPGGSLRLSCATSGIIFTSNVINWYRQAPGKQREFVAFITSITSGQSTMYADAVKGRFTVSRDNDKNIGYLQMTSLQPEDTARYVCNVGAYWGQGTQVTVKPGGSGGSQVQLVESGGGLVQPGGSLRLSCATSGIIFTSNVINWYRQAPGKQREFVAFITSITSGQSTMYADAVKGRFTVSRDNDKNIGYLQMTSLQPEDTARYVCNVGAYWGQGTQVTVKPGGGGDKTHTCPPCPAPGGPSVFLFPPKPKDTLMISRTPEVTCVVVDVSHEDPEVKFNWYVDGVEVHNAKTKPREEQYNSTYRVVSVLTVLHQDWLNGKEYKCKVSNKALPAPIEKTISKAKGQPREPQVYTLPPSRDELTKNQVSLTCLVKGFYPSDIAVEWESNGQPENNYKTTPPVLDSDGSFFLYSKLTVDKSRWQQGNVFSCSVMHEALHNHYTQKSLSLSPGK
notes: Homodimer through the Fc; also called cx8522

Biological target: T1, human Siglec-8 (full-length, on transfected CHO or 293 cells, or native on human eosinophils) (human, UniProt Q9NYZ4 17-499)
T1 sequence (Q9NYZ4 17-499): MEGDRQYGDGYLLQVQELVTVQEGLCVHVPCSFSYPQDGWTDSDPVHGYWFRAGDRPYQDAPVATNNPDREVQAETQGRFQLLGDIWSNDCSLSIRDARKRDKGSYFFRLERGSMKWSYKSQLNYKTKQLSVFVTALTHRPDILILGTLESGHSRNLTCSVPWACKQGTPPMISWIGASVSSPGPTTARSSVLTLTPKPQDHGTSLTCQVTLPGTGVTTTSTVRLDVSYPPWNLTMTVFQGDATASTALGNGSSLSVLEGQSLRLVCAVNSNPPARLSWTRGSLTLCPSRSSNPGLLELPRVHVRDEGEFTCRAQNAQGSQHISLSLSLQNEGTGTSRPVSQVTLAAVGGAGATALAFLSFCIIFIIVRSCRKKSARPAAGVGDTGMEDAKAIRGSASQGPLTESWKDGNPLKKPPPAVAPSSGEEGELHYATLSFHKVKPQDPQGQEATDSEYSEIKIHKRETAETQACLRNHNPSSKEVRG
Assay: flow cytometry on 293 cells transiently transfected with full-length human Siglec-8; A647 anti-human Fc-gamma secondary; median fluorescence, nonlinear fit; table under the graph
Method: (§1) The binding of the lmG2 and humanized versions (further including Siglec8 hzG2v14), formatted as monomeric VHH-hIgG1 fusions proteins using a non-dimerizing human IgG1 Fe variant region lacking a hinge Fe NNT, was assessed by flow cytometry using 293 cells that had been transiently transfected with full-length human Siglec-8 and detected with an anti-human AF647 secondary antibody. Binding specificity was assessed using untransfected 293 cells as a control. For the binding assays, Siglec-8 293 cells or untransformed 293 cells were seeded in a 96 well U-bottom plate with 50 k cells/well in FACS buffer and incubated at 4° C. with a titration of anti-Siglec8-VHH-NNT for 30 minutes. After washing, the plates were incubated with an A647-conjugated anti-human Fcγ specific secondary antibody diluted 1:10,000 in FACS buffer for 20 minutes at 4° C. The plates were washed, and binding was determined by flow cytometry quantitating anti-human A647 median fluorescent intensity. The maximum specific binding (Bmax) and affinity (Kd) for was determined from the flow cytometry binding data using a nonlinear fit model.

First: B1
Second: B2
The Bmax of the first is higher: 3.81e+06 Median (anti-human A647) for the first, 3.63e+06 Median (anti-human A647) for the second.

Compared with B3, B4 is lower in Bmax: 1.49e+06 Median (anti-human A647) for the first, 1.47e+06 Median (anti-human A647) for the second.

First: B5
Second: B6
The Bmax of the first is lower: 1.06e+06 Median (anti-human A647) for the first, 1.27e+06 Median (anti-human A647) for the second.

Compared with B7, B8 is lower in Bmax: 1.35e+06 Median (anti-human A647) for the first, 1.25e+06 Median (anti-human A647) for the second.

With B9 the Bmax was 1.4e+06 Median (anti-human A647).

Biological target: T1, human Siglec-8 (full-length, on …)
Assay: flow cytometry on human eosinophils (CD16- CCR3+) from whole blood; anti-human AF647 secondary; MFI
Source text: To determine if increasing the valency of Siglec-8 antibodies could enhance agonist activity, the parental llama B12, D1 and E2 VHH sequences were used to generate tetravalent (Tet-B12 (cx8467; SEQ ID NO:50 linked to an Fe), Tet-D1 (cx8469; SEQ ID NO:56 linked to an Fe), and Tet-E2 (cx8463; SEQ ID NO:62 linked to an Fc)) and hexavalent (Hex-B12 (cx8466; SEQ ID NO:51 linked to an Fe), Hex-D1 (cx8523; SEQ ID NO:57 linked to an Fe), and Hex-E2 (cx8522; SEQ ID NO:165 linked to an Fc)), Siglec8-VHH-Fc antibodies linked to a reduced effector function xELL human Fc region via linker 2. The bivalent (Bi-B12 (cx8982), Bi-D1 (cx8983) and Bi-E2 (cx8984)), tetravalent, and hexavalent Siglec8-VHH-Fc antibodies were assessed by flow cytometry for binding to eosinophils (CD16⁻ CCR3⁺). Cells were isolated from whole blood by centrifugation, washed twice with 2% FBS PBS, and resuspended in 1×RBC lysis buffer for 10 minutes at room temperature (RT), washed once in 2% FBS PBS and treated with a second RBC lysis step and washed twice with 2% FBS. Cells were seeded at 200 k/well and resuspended in Human FC block for 10 minutes at RT. Cells were spun down and then resuspended in titrated test articles starting at 200 nM 1:4 and incubated for 30 minutes at 4° C. before being washed twice and resuspended in secondary mixture (2*; anti-CCR3 FITC, anti-human AF647, PI, anti-CD16 BV605) and incubated for 30 minutes at 4° C., washed twice, and bound antibodies were detected via flow cytometry (Novocyte).
As shown in FIG. 2A-2C, bivalent, tetravalent, and hexavalent Siglec8-VHH-Fc antibodies B12 (FIG. 2A), D1 (FIG. 2B) and E2 (FIG. 2C) bound to eosinophils. The calculated affinity was similar between the bivalent, tetravalent, and hexavalent hzSiglec8-VHH-Fc antibodies. The observed Bmax was reduced with increasing valency as anticipated, due the fact that the Fc portion of the antibody was detected in this assay and the ratio of Fc regions to anti-Siglec-8 binding domains is inverse to valency. No binding was observed on other granulocyte populations (CD16⁺ CCR3⁻).

B10: binds.
B11: binds.
B12: binds.
B13: binds.
B14: binds.
B15: binds.

Biological target: T1, human Siglec-8 (full-length, on …)
Assay: flow cytometry on 293 cells transiently transfected with full-length human Siglec-8; A647 anti-human Fc-gamma secondary; median fluorescence, nonlinear fit; table under the graph (Kd column without unit, concentration axis nM Ab)
Method: as §1

B1 and B2 are within 1.5-fold of each other in Kd: 1.57 nM for the first, 1.7 nM for the second.

B3 and B4 are within 1.5-fold of each other in Kd: 0.1 nM for the first, 0.14 nM for the second.

B5 and B6 are within 1.5-fold of each other in Kd: 0.138 nM for the first, 0.181 nM for the second.

Going from B7 to B8, the Kd rises from 0.164 nM to 0.327 nM (2-fold).

In the case of B9, the Kd is reported as 0.175 nM.
